Data as given in patent publication US20220289837A1, “Cystic Fibrosis Transmembrane Conductance Regulator Stabilizing Agents” (VIB VZW, priority 2019, published 2022).
Residue numbers refer to the chain shown, from its start.

B1: T8: nanobody, SEQ ID NO:7, binds epitope 2 including F508, stabilizes WT CFTR but not F508del (protein)
VHH: QVQLQESGGGLVQPGGSLRLSCAASGSTSSINAMGWYRQAPGKQREPVAISSSGGDTRYAEPVKGRFTISRDNAQNKVYLQMNSLKPEDTAVYYCWLNWGRTSVNSWGQGTQVTVSS
modifications: T8 Nanobody amino acid sequence
B2: G3a: non-stabilizing nanobody, SEQ ID NO:50, recognizes the structurally diverse region of NBD1 (protein)
VHH: QVQLQESGGGLVQAGGSLRLSCTASGRAFSWYVMGWFRQAPGKEREFVATVSGNGSRRDYADSVKGRFTISRDNAKNTVYLQMNSLKPEDTAVYYCAASSTYYYTDPEKYDYWGQGTQVTVSS
modifications: G3a Nanobody
B3: T2a: NBD1-specific CFTR-stabilizing nanobody, SEQ ID NO:3, binds epitope 1 (protein)
VHH: QVQLQESGGGLVQAGGSLRLSCAASGSIFRIDAMGWYRQAPGKQRELVAHSTSGGSTDYADSVKGRFTISRDNAKNTVYLQMNSLKPEDTAVYYCNADVRTRWYASNNYWGQGTQVTVSS
modifications: T2a Nanobody amino acid sequence
B4: D12: NBD1-specific CFTR-stabilizing nanobody, SEQ ID NO:2, binds epitope 1 (protein)
VHH: QVQLQESGGGLVQAGSSLRLACAATGSIRSINNMGWYRQAPGKQRGMVAIITRVGNTDYADSVKGRFTISRDNAKNTVYLQMNSLKPEDTATYYCHAEITEQSRPFYLTDDYWGQGTQVTVSS
modifications: D12 Nanobody amino acid sequence
B5: G5: NBD1-binding nanobody, SEQ ID NO:5, same binding site as T2a, T27 and D12 (protein)
VHH: B4 VHH with S16G, S30N, N33T, G46D, I50F, V54A, K75R, Q81R, T100A, Q102R
modifications: G5 Nanobody amino acid sequence

How the values were obtained:
Assay type in all cases: cell-based
[1] = biological target: T1, 3HA-F508del-CFTR (Homo sapiens, UniProt P13569, DEL508-508); test: Cell-surface expression of F508del-CFTR in HEK-293T cells by flow cytometry; conditions: extracellular 3HA-tag, Nb transfected and/or VX-809
T1 construct: expressed in transfected cells
Description: (§1) HEK293T cells expressing F508del-CFTR with an engineered extracellular 3HA tag were transiently transfected with the stabilizing Nbs, as well as control Nbs. The effect on F508del mutant CFTR expression and maturation was measured by flow cytometry, Western Blot and fluorescence microscopy. Next, the effect of the transfection of each Nb was measured in the absence or presence of the correctors VX-809 (lumacaftor) or VX-661 (Tezacaftor).
(§2) Stable cell lines were generated by lentiviral transduction as described in (Ensinck, et al. 2020). CFTR variants were cloned to contain a triple hemagglutinin (3HA) tag in the fourth extracellular loop (EC-loop) of CFTR (Sharma, et al. 2004) for maturation and trafficking studies. For HS-YFP quenching studies, double stable cell lines were generated, co-expressing stable HS-YFP (Galietta, et al. 2001).

[2] = biological target: T1, 3HA-F508del-CFTR; test: CFTR protein maturation by Western Blot in 3HA-F508del-CFTR HEK-293T cells; conditions: for band C (fully glycosylated mature CFTR): FIG. 15, Nb transfected and/or VX-809; for mature CFTR protein band (band C): FIG. 17, Nb transfected and/or VX-661
Description: as §1, §2
Cell extracts were separated by SDS-PAGE on 7.5% polyacrylamide gel and transferred to nitrocellulose membrane (Bio-Rad) for immunodetection. After blocking for 1 h with 5% bovine serum albumin (BSA) in Tris-buffered saline added 0.05% Tween-20 (TBST), CFTR was detected using monoclonal antibody mAb 596, IgG2b (CFTR Antibody Distribution Program, dilution 1:46) for 1 h in blocking buffer. Blot was washed 3 times 5 min and incubated with anti-mouse-HRP antibody (Millipore, catalogue number: AP308P, 0.2 μg/ml) for 1 h in TBST. Membrane was washed 3 times for 5 min. CFTR was visualized by chemiluminescence using Luminata Forte Western HRP Substrate (Millipore) and detected with ImageQuant 400 (GE Healthcare).

[3] = biological target: T1, 3HA-F508del-CFTR; test: Immunostaining of cell-surface expression in F508del-CFTR HEK-293T cells
Description: as §2
For PM staining, cells were blocked with 1% BSA-PBS and incubated with HA.11 antibody (#901515, Biolegend 1:1000) at 4° C. on living cells. Next, cells were fixed (4% PFA) followed by Alexa-488 secondary antibody (#A-11001, Thermo Fischer Scientific, 1:500). Nuclei were stained with DAPI (4′,6-diamidino-2-fenylindole, #D1306, Thermo Fischer Scientific, 1:2000) and sections analyzed by confocal microscopy.

T1 sequence (P13569 with tags, fused parts or gaps DEL508-508): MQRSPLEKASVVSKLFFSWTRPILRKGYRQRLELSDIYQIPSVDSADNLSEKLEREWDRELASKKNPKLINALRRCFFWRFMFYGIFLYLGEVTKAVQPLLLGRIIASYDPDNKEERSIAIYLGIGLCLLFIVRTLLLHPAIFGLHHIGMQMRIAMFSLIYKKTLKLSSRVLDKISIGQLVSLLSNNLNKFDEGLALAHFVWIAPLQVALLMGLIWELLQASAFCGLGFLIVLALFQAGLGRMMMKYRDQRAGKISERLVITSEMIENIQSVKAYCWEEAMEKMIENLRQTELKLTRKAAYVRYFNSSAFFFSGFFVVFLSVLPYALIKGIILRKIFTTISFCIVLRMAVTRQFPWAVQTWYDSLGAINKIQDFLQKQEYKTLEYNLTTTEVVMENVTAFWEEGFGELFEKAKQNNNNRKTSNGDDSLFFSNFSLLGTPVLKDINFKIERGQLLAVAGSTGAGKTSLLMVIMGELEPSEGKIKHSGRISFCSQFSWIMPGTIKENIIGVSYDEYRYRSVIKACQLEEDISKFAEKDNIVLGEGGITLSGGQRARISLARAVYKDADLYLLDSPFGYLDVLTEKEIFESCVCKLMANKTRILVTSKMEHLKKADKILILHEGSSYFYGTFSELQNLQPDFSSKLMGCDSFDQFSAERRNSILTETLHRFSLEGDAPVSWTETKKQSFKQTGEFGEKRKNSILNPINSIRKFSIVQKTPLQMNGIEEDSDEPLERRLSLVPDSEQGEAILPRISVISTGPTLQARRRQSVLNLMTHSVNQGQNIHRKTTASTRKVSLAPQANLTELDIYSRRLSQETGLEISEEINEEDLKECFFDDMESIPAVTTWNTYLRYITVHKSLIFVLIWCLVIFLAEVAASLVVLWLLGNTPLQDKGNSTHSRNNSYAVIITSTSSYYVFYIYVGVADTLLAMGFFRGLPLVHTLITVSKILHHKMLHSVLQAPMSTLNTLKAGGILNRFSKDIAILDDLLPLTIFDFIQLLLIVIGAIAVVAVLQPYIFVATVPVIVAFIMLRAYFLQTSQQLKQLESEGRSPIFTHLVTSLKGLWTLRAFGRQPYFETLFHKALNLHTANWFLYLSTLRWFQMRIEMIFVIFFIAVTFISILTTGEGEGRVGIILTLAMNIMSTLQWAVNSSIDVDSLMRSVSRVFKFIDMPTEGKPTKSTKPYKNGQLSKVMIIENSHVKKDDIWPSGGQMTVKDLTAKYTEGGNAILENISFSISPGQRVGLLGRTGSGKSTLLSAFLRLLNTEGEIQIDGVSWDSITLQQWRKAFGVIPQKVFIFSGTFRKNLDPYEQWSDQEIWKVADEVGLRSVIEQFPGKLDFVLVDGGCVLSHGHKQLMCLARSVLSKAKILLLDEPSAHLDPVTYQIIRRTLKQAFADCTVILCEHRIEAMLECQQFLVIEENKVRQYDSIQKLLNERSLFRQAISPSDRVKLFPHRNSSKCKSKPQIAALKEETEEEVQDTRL

Molecule | cell-surface expression of F508del-CFTR [1] | band C (fully glycosylated mature CFTR) [2] | mature CFTR protein band (band C) [2] | cell-surface immunostaining [3]
B1 | No effect | no effect |  | 
B2 | No effect | no effect | detectable | 
B3 | moderate increase in surface expression | detectable | only a minor effect | moderate staining
B4 | moderate increase in surface expression |  |  | 
B5 | moderate increase in surface expression |  |  | 
